Among the data in PMC5531834 are Kd values, retold here.

For data set [1], the system named is WT-Gag (HIV-1 Δp6 Gag) (HIV-1). Briefly: FCS Cy5 quenching, competition. As to conditions: 20 mM Tris-HCl pH 7.5, 0.2 M NaCl (varied in salt titrations), 5 mM MgCl2, 1 uM ZnCl2, 0.1 mM PMSF, 1 mM BME, 0.05% Tween 20; 15 nM RNA; overnight 4 C, FCS at ….
For data set [2], the system named is 8N-Gag (Δp6) (HIV-1). Briefly: FCS Cy5 quenching, competition. The conditions noted are these: 20 mM Tris-HCl pH 7.5, 0.2 M NaCl (varied in salt titrations), 5 mM MgCl2, 1 uM ZnCl2, 0.1 mM PMSF, 1 mM BME, 0.05% Tween 20; 15 nM RNA; overnight 4 C, FCS at ….
Data set [3] deals with WT-Gag (HIV-1 Δp6 Gag) (HIV-1). Briefly: FCS Cy5 quenching. As to conditions: 20 mM Tris-HCl pH 7.5, 0.2 M NaCl (varied in salt titrations), 5 mM MgCl2, 1 uM ZnCl2, 0.1 mM PMSF, 1 mM BME, 0.05% Tween 20; 15 nM RNA; overnight 4 C, FCS at ….
Data set [4] relates to 8N-Gag (Δp6) (HIV-1). Briefly: FCS Cy5 quenching. The conditions noted are these: 20 mM Tris-HCl pH 7.5, 0.2 M NaCl (varied in salt titrations), 5 mM MgCl2, 1 uM ZnCl2, 0.1 mM PMSF, 1 mM BME, 0.05% Tween 20; 15 nM RNA; overnight 4 C, FCS at ….
Data set [5] has as its system WT-Gag (HIV-1 Δp6 Gag) (HIV-1). Briefly: FCS Cy5 quenching. As to conditions: 20 mM Tris-HCl pH 7.5, 0.2 M NaCl (varied in salt titrations), 5 mM MgCl2, 1 uM ZnCl2, 0.1 mM PMSF, 1 mM BME, 0.05% Tween 20; 15 nM RNA; overnight 4 C, FCS at …. The source holds these as a separate data set.
Data set [6] has as its system 8N-Gag (Δp6) (HIV-1). Briefly: FCS Cy5 quenching. The conditions noted are these: 20 mM Tris-HCl pH 7.5, 0.2 M NaCl (varied in salt titrations), 5 mM MgCl2, 1 uM ZnCl2, 0.1 mM PMSF, 1 mM BME, 0.05% Tween 20; 15 nM RNA; overnight 4 C, FCS at …. This is another data set of the same source.
The target of data set [7] is Gag (Human immunodeficiency virus 1) (UniProt O93182). As to conditions: cited from earlier work.

As usually defined, the Kd is the concentration at which binding is half-saturated.

Chain of Gag (O93182 2-500): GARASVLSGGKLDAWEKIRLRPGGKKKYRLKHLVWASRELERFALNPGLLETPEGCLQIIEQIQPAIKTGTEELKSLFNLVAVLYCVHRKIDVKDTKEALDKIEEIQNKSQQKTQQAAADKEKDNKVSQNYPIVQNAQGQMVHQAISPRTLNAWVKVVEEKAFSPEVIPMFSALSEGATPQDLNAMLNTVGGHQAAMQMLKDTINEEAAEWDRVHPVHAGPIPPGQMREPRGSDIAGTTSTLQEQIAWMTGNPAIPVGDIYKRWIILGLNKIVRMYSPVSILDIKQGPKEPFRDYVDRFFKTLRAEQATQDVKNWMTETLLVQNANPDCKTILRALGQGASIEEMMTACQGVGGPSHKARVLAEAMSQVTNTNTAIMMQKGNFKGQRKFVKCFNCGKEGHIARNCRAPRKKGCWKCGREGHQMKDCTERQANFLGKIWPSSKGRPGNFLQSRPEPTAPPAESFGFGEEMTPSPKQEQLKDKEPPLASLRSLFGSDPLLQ

Consider HIV Ψ1 (monomeric HIV-1 Ψ RNA), for which the Kd turned out to be 53.3 nM in data set [1]; 60 nM in the data set with 8N-Gag (Δp6) (HIV-1) [2]; 21.4 nM in data set [3]; 60 nM in the data set on 8N-Gag (Δp6) (HIV-1) [4]; 26 nM in data set [5].
For the substance HIV Ψ2 (dimeric HIV-1 Ψ RNA), the Kd is over 1000 nM with 8N-Gag (Δp6) (HIV-1) [6]; 37 nM in data set [1]; 54.7 nM in the data set on 8N-Gag (Δp6) (HIV-1) [2]; 20.3 nM in data set [3]; 43.2 nM in the data set with 8N-Gag (Δp6) (HIV-1) [4].
Regarding MoMLV Ψ RNA, the Kd in data set [1] amounted to 119 nM; with 8N-Gag (Δp6) (HIV-1) [2], 59 nM; in data set [3], 25.9 nM; in the data set on 8N-Gag (Δp6) (HIV-1) [4] it was 59.8 nM.
For the substance GRPE RNA, the Kd in the data set on 8N-Gag (Δp6) (HIV-1) [6] is over 1000 nM; in data set [1], 315 nM; with 8N-Gag (Δp6) (HIV-1) [2], 154 nM; in data set [3], 44.2 nM; with 8N-Gag (Δp6) (HIV-1) [4], 145 nM.
For the substance Gag (from UniProt O93182), the dissociation constant (Kd) in data set [7] is 10000 nM.
